1 molecule from US20210070868A1 (published 2021) can be followed below.

This test has as its target Hepatocyte Growth Factor (HGF) (UniProt P14210 32-728). As to the kind of experiment: ELISA. A general note: In an ELISA, binding on a coated surface is turned into a signal by an enzyme label.

Hepatocyte Growth Factor (HGF), sequence (P14210 32-728): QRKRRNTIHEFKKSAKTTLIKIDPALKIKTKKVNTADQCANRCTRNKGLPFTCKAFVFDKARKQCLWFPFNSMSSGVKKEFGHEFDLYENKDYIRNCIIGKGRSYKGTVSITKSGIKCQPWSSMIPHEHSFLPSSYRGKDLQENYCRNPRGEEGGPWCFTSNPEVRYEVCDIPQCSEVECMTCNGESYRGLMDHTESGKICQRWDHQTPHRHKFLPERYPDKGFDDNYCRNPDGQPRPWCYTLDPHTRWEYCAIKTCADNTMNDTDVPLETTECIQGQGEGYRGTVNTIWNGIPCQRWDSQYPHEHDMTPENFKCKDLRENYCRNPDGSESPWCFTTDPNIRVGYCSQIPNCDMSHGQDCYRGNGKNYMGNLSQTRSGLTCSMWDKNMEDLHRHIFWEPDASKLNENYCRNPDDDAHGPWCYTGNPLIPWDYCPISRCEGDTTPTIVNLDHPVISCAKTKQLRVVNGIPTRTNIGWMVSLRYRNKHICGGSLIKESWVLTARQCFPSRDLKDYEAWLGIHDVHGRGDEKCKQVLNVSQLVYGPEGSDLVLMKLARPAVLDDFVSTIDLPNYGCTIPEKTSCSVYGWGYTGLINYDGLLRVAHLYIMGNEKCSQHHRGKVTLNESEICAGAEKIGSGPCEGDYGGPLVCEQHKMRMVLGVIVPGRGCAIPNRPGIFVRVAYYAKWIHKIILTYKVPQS

B1: decoyMET^K842E (receptor)
chain: ECKEALAKSEMNVNMKYQLPNFTAETPIQNVILHEHHIFLGATNYIYVLNEEDLQKVAEYKTGPVLEHPDCFPCQDCSSKANLSGGVWKDNINMALVVDTYYDDQLISCGSVNRGTCQRHVFPHNHTADIQSEVHCIFSPQIEEPSQCPDCVVSALGAKVLSSVKDRFINFFVGNTINSSYFPDHPLHSISVRRLKETKDGFMFLTDQSYIDVLPEFRDSYPIKYVHAFESNNFIYFLTVQRETLDAQTFHTRIIRFCSINSGLHSYMEMPLECILTEKRKKRSTKKEVFNILQAAYVSKPGAQLARQIGASLNDDILFGVFAQSKPDSAEPMDRSAMCAFPIKYVNDFFNKIVNKNNVRCLQHFYGPNHEHCFNRTLLRNSSGCEARRDEYRTEFTTALQRVDLFMGQFSEVLLTSISTFIKGDLTIANLGTSEGRFMQVVVSRSGPSTPHVNFLLDSHPVSPEVIVEHTLNQNGYTLVITGKKITKIPLNGLGCRHFQSCSQCLSAPPFVQCGWCHDKCVRSEECLSGTWTQQICLPAIYKVFPNSAPLEGGTRLTICGWDFGFRRNNKFDLKKTRVLLGNESCTLTLSESTMNTLKCTVGPAMNKHFNMSIIISNGHGTTQYSTFSYVDPVITSISPKYGPMAGGTLLTLTGNYLNSGNSRHISIGGKTCTLKSVSNSILECYTPAQTISTEFAVKLKIDLANRETSIFSYREDPIVYEIHPTKSFISGGSTITGVGKNLNSVSVPRMVINVHEAGRNFTVACQHRSNSEIICCTTPSLQQLNLQLPLKTKAFFMLDGILSKYFDLIYVHNPVFEPFEKPVMISMGNENVLEIKGNDIDPEAVKGEVLKVGNKSCENIHLHSEAVLCTVPNDLLKLNSELNIEWKQAISSTVLGKVIVQPDQNFTASGAAWSHPQFEKGAAWSHPQFEKGAAWSHPQFEKGAAHHHHHH
In the case of B1, binding was put at a Kd of 0.251 nM.
